Source: patent US20060292117A1

Target: serpin enzyme complex receptor (secR) on IB3 cells
Assay: cell-based or functional assay

## VP1 serpin virus (AAV2 capsid with serpin ligand FVFLI substituted for the capsid sequence immediately after aa 34) (from UniProt P03135 1-34; P03135 40-735; P03135 138-735; P03135 203-735)
  infectivity on IB3 cells (hAAT ELISA) against wt capsid: 62 fold
